Common to all, as to assay type: biochemical
One experiment deals with T1, BMX (Homo sapiens, UniProt P51813).
T1 sequence (P51813 1-675): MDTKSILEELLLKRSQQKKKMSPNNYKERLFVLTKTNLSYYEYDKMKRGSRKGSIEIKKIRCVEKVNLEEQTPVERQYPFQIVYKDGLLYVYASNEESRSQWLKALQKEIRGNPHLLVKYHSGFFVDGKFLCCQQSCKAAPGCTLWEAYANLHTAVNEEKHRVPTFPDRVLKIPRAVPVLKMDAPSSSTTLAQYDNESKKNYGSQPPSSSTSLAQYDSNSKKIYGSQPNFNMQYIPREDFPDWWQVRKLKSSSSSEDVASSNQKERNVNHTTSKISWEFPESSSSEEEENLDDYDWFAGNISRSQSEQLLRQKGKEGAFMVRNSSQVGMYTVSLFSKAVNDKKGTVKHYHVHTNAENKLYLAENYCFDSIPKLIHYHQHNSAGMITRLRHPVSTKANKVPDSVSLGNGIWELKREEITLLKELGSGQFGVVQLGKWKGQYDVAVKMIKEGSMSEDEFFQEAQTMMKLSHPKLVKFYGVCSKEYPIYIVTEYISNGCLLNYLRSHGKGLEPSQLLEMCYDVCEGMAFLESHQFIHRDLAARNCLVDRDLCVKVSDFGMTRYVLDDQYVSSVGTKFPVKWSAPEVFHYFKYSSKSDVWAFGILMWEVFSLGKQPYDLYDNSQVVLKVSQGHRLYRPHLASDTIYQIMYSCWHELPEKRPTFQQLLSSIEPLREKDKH
Description: TR-FRET kinase assay, BMX. The conditions noted are these: Kinase Concentration 0.5 nM; 50 nM ULight-labeled substrate, 200 micromolar ATP, 2 hours. How it is done: (§1) TR-FRET kinase assays are performed under standardized conditions: various individual kinases are incubated with 50 nM of kinase substrate BRB1 labeled with the TR-FRET acceptor dye ULight (PerkinElmer) and 200 micromolar ATP in 10 μL of kinase assay buffer (50 mM HEPES pH7.5, 10 mM MgCl2, 3 mM MnCl2, 1 mM EGTA, 2 mM DTT and 0.01% Tween-20) for 2 hours at room temperature. Reactions are stopped with EDTA, and anti-phospho-tyrosine antibodies (clone PT66) labeled with the TR-FRET europium chelate donor dye are added to a final concentration of 2 nM in a final volume of 20 μL. The TR-FRET signal emitted at 665 nm is read one hour after the addition of antibodies using a TR-FRET plate reader such as the Envision® Multilabel Plate reader (PerkinElmer). The emitted signal at 665 nm is proportional to the extent of peptide phosphorylation, Control reactions indicative of background are performed excluding ATP from the reaction.
(§2) Assay conditions are identical to those used described for FIG. 1.
A general note: In TR-FRET formats the signal depends on donor and acceptor labels being close together.

In a further experiment the target is BRK (Homo sapiens, UniProt Q13882). The experiment can be described thus: TR-FRET kinase assay, BRK. The conditions noted are these: Kinase Concentration 3 nM; 50 nM ULight-labeled substrate, 200 micromolar ATP, 2 hours. How it is done:
as §1, §2

A further experiment deals with LCK (Homo sapiens, UniProt P06239). The experiment can be described thus: TR-FRET kinase assay, LCK. The conditions noted are these: Kinase Concentration 0.5 nM; 50 nM ULight-labeled substrate, 200 micromolar ATP, 2 hours. How it is done:
as §1, §2

In the next experiment the target is TYK2 (Homo sapiens, UniProt P29597). The experiment can be described thus: TR-FRET kinase assay, TYK2. The conditions noted are these: Kinase Concentration 4 nM; 50 nM ULight-labeled substrate, 200 micromolar ATP, 2 hours. Here is the method:
as §1, §2

A further experiment has as its target EphA5 (Homo sapiens, UniProt P54756). The experiment can be described thus: TR-FRET kinase assay, EphA5. The conditions noted are these: Kinase Concentration 1 nM; 50 nM ULight-labeled substrate, 200 micromolar ATP, 2 hours. Here is the method: as §1, §2
In another experiment the target is EphA7 (Homo sapiens, UniProt Q15375). The experiment can be described thus: TR-FRET kinase assay, EphA7. The conditions noted are these: Kinase Concentration 0.5 nM; 50 nM ULight-labeled substrate, 200 micromolar ATP, 2 hours. How it is done:
as §1, §2

The target of another experiment is T2, EphB1 (Homo sapiens, UniProt P54762).
T2 sequence (P54762 18-984): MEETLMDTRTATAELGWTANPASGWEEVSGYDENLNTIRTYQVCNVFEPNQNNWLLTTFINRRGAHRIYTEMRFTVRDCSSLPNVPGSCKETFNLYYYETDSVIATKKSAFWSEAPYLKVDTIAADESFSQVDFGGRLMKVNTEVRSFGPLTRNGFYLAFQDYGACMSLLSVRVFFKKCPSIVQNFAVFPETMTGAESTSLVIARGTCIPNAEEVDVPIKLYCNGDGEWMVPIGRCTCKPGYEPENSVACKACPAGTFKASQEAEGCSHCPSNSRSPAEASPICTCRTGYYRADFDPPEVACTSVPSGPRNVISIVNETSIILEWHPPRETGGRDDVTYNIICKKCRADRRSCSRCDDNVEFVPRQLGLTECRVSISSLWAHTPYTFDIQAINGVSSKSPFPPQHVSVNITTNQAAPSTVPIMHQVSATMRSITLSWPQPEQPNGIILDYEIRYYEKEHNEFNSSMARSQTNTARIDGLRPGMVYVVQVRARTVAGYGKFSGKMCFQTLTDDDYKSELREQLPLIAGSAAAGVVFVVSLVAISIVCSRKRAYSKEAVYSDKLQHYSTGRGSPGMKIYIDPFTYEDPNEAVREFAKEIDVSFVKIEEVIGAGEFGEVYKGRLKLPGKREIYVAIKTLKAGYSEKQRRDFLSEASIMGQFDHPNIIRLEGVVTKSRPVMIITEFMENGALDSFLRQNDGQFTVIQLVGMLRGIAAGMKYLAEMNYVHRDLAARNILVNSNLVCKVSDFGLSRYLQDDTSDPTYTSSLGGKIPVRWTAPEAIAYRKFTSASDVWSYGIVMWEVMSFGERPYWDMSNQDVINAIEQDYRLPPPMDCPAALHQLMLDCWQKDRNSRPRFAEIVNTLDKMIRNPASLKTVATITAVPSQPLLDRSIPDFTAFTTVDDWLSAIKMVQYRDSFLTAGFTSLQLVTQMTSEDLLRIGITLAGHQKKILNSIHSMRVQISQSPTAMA
Description: TR-FRET kinase assay, EphB1. The conditions noted are these: Kinase Concentration 0.5 nM; 50 nM ULight-labeled substrate, 200 micromolar ATP, 2 hours. Here is the method:
as §1, §2

LCK, sequence (P06239 whole entry, species assumed): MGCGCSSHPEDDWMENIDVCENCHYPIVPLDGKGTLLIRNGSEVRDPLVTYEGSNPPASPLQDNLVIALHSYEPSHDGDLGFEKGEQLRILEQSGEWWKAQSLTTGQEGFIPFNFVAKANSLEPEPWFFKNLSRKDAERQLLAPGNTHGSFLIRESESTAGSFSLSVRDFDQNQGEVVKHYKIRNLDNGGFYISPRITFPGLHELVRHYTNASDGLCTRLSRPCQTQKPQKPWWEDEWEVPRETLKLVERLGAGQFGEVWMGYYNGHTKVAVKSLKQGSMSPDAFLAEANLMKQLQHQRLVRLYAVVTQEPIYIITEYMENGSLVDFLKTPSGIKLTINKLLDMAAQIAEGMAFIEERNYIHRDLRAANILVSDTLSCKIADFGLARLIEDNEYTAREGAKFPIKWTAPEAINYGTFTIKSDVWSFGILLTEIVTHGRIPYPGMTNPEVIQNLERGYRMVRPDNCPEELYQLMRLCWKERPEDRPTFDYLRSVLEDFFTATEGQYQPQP
EphA5, sequence (P54756 25-1037, species assumed): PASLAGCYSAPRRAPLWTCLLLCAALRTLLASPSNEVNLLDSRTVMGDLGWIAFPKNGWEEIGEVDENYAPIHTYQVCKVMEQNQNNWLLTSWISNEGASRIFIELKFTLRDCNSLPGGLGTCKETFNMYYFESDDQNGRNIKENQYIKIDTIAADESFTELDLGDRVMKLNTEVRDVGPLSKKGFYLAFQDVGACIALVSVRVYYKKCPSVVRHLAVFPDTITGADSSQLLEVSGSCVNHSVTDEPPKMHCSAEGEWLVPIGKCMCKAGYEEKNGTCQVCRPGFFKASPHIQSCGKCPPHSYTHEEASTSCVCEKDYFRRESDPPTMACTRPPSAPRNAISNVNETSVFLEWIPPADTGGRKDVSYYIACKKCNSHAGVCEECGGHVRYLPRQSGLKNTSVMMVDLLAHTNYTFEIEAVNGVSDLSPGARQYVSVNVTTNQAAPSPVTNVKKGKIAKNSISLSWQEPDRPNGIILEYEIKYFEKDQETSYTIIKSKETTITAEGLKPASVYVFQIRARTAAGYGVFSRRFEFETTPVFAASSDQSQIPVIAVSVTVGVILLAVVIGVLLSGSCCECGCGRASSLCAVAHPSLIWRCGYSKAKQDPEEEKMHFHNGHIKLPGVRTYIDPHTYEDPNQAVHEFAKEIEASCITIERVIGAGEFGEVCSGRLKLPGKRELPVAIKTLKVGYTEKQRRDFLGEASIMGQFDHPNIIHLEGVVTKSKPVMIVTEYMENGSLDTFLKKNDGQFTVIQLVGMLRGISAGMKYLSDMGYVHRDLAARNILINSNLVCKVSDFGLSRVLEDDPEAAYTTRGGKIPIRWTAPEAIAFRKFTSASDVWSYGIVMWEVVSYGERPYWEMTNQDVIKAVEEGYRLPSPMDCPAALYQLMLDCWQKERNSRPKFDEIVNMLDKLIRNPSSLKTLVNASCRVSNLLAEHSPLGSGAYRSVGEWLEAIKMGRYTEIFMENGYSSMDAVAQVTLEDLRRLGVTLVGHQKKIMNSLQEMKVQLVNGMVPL
TYK2, sequence (P29597 whole entry, species assumed): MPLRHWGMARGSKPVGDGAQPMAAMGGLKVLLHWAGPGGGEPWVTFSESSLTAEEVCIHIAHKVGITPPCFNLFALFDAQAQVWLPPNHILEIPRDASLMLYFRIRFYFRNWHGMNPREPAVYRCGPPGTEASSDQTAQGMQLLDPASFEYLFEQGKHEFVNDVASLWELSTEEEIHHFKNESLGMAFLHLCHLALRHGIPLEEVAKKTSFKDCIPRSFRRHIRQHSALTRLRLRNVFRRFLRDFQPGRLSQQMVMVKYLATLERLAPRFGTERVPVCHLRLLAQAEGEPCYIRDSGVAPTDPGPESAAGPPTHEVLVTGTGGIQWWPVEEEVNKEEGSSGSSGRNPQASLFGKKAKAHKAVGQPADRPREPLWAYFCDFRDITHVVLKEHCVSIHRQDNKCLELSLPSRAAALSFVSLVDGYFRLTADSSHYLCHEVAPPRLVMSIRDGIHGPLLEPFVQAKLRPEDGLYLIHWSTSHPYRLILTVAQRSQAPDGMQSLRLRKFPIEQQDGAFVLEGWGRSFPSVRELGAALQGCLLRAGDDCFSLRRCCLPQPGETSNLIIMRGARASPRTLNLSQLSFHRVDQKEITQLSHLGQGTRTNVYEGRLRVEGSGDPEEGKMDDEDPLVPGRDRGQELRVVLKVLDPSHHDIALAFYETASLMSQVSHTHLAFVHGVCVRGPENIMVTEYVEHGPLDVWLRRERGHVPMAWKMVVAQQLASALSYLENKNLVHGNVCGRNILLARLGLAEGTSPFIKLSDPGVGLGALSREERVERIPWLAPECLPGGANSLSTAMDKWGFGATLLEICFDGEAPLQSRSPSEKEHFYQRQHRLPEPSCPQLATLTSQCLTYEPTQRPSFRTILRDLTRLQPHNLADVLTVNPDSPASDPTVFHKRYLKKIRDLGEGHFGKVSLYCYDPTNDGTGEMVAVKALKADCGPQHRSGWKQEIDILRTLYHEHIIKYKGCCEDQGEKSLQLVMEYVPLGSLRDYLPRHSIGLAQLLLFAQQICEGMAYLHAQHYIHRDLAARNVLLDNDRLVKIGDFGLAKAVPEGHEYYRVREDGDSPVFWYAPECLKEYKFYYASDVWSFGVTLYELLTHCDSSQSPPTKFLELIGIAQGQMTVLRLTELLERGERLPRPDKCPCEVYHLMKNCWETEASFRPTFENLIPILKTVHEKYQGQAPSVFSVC
EphA7, sequence (Q15375 28-998, species assumed): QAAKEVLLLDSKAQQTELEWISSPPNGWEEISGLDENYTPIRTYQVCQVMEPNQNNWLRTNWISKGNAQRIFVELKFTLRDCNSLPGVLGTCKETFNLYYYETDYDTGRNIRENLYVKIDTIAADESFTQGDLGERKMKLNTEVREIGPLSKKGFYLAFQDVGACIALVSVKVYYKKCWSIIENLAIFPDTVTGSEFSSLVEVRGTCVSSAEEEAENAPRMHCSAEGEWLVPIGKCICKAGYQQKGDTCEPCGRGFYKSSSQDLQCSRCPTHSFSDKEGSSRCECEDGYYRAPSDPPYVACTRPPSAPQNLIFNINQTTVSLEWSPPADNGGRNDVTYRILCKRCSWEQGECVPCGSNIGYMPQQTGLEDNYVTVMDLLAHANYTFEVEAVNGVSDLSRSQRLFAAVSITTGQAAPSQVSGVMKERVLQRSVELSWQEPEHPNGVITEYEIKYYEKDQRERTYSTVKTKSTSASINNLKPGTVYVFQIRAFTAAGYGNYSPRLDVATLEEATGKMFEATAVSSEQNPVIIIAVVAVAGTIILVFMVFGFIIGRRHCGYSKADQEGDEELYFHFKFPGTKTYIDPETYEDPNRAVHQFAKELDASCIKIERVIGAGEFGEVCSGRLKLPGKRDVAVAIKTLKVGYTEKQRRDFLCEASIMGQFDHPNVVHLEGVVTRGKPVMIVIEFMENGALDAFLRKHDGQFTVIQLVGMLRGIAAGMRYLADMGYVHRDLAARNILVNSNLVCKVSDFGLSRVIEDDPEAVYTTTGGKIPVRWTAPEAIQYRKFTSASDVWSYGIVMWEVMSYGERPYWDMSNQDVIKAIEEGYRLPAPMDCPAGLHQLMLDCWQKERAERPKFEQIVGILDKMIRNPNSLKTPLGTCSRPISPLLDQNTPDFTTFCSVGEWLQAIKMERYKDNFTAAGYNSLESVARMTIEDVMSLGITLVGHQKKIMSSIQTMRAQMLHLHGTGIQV
BRK, sequence (Q13882 whole entry, species assumed): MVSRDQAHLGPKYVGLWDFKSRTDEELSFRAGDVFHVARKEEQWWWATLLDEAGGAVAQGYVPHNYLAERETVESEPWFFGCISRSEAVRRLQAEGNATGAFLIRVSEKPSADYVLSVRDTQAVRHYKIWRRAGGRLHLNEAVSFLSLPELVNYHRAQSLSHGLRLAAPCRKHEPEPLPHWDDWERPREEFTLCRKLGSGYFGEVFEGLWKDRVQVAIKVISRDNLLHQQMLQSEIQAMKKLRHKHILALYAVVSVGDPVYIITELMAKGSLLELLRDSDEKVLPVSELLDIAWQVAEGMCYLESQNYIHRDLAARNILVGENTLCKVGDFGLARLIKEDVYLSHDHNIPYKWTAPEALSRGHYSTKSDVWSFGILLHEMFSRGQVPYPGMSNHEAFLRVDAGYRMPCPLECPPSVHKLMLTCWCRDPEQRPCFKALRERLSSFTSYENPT

Consider “C AYE AYE AYE K EYA EYA EYA K AYA EYE R (CAYEAYEAYEKEYAEYAEYAKAYAEYER; tyrosine kinase substrate peptide) [BRB1]”, for which the “Signal to Noise ratio with BRB1 Peptide” value with BMX worked out at 7.1; in the experiment with BRK, 2.4; in the experiment with LCK, 12.3; with TYK2 it was 7.3; in the experiment with EphA5, 35.5; with EphA7 it was 17.2. Further, the “Signal to Noise ratio with BRB1 Peptide” value with EphB1 is given as 29.9.

For the origin of these results see patent publication US8242083B2, “Kinase substrates” (PerkinElmer Health Sciences, Inc., priority 2008, dated 2012).
